Data as given in PMC10397321.

Assays:
[1] = target: photosystem I (PSI) monomer (Synechocystis sp. PCC 6803) (UniProt P29254)
[2] = target: photosystem I (PSI) monomer (Synechocystis sp. PCC 6803) (UniProt P29254); assay: cryo-EM structure; native PSI3-IsiA18 supercomplex co-purified from Synechocystis sp. PCC 6803 membranes in DDM; 30 mM Tricine-NaOH pH 8, 75 mM NaCl, 0.02% DDM; 1.5 mg chlorophyll/ml; vitrified on holey carbon grids; C3 symmetry expansion and multibody refinement

photosystem I (PSI) monomer (Synechocystis sp. PCC 6803), sequence (P29254 whole entry, looked up): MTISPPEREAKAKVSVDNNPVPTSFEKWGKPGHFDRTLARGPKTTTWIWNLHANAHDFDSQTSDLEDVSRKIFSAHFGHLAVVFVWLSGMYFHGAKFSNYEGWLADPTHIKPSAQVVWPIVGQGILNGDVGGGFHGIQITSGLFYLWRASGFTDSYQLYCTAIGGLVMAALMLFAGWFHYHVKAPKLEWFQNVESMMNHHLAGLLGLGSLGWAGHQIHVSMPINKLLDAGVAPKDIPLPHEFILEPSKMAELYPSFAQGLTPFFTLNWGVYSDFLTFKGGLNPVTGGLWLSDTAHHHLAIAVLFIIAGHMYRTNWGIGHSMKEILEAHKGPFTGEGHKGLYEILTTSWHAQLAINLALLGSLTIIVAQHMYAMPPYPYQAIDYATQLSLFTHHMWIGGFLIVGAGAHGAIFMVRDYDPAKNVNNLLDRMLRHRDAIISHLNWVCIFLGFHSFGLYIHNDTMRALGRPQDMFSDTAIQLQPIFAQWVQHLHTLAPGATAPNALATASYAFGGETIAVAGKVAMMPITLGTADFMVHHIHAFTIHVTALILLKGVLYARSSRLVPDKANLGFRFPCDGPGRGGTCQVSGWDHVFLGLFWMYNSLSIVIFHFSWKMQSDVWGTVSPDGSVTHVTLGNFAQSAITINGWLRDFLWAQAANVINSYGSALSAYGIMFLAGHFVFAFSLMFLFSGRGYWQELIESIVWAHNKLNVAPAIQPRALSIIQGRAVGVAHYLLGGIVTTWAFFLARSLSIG
iron-stressed induced protein A (IsiA), sequence (Q55274 whole entry): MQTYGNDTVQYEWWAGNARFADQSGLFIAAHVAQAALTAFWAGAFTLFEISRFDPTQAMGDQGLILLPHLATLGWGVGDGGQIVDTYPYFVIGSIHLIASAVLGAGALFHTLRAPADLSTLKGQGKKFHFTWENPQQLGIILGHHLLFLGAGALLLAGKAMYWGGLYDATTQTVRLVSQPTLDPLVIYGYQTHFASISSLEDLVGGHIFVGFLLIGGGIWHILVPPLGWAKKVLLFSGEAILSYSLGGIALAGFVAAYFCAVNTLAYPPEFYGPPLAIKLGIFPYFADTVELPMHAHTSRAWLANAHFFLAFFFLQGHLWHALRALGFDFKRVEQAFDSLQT

| single-molecule fluorescence lifetime: share of complexes with bi-exponential decay at all intensity levels (partially coupled, population II) [1] [%] | single-molecule fluorescence lifetime: share of complexes with fast mono-exponential decay at all intensity levels (continuously coupled) [1] [%] | single-molecule fluorescence lifetime: share of complexes with mono-exponential levels interleaved with bi-exponential levels (transiently coupled, population I) [1] [%] | stoichiometry N [2] | Substance |
| --- | --- | --- | --- | --- |
| 4 | 60 | 36 |  | iron-stressed induced protein A (IsiA) (from UniProt Q55274 1-342) (natural protein) |
|  |  |  | 3 | photosystem I (PSI) monomer (from UniProt P29254 1-751; P29255 1-731; P29256 24-165; Q55329 1-40; P72712 1-86) (complex) |
